In patent US20070128190A1:
Substitutions are numbered along the chain they refer to. In names and notes the source's numbering stands.

B1: TMC-2206 (antibody, mouse IgG1, V domains shown)
VH: QVQLKESGPGLVAPSQSLSITCTVSGFSLTNYGIHWVRQPPGKGLEWLGVIWARGFTNYNSALMSRLIITKDNSQSQVFLKMNSLQPDDSATYFCARANDGVYYAMDYWGQGTSVTVSS
VL: QFVLTQSPAFLSASPGEKVTMTCSANSSVNYIHWYQQKSGTSPKKWIYDTSKLASGVPVRFSGSGSGTSYSLTISSMETEDAATYYCQQWTTNPLTFGAGTRVELK
B2: TMC-2206 VH D100A variant antibody (antibody, part only; not given: Light chain, constant regions, V domains shown, part only)
VH: B1 VH with D100A

Experiments:
[1] = target: GST-rat α2 I domain fusion protein (rat); assay: SPR (Biacore 2000), antibody captured, GST-α2 I domain in solution
[2] = target: GST-rat α2 I domain fusion protein (rat); assay: Eu-TMC-2206 on immobilized GST-α2 I domain at 37 °C, Scatchard
[3] = target: human platelet α2β1 integrin (immobilized on microtiter plates) (human) (UniProt P17301); assay: competition with Eu-TMC-2206 on human platelet α2β1-coated plate
Sequence of human platelet α2β1 integrin (immobilized on microtiter plates) (human) (P17301 30-1181 E534K limits assumed, chain 1 of 2): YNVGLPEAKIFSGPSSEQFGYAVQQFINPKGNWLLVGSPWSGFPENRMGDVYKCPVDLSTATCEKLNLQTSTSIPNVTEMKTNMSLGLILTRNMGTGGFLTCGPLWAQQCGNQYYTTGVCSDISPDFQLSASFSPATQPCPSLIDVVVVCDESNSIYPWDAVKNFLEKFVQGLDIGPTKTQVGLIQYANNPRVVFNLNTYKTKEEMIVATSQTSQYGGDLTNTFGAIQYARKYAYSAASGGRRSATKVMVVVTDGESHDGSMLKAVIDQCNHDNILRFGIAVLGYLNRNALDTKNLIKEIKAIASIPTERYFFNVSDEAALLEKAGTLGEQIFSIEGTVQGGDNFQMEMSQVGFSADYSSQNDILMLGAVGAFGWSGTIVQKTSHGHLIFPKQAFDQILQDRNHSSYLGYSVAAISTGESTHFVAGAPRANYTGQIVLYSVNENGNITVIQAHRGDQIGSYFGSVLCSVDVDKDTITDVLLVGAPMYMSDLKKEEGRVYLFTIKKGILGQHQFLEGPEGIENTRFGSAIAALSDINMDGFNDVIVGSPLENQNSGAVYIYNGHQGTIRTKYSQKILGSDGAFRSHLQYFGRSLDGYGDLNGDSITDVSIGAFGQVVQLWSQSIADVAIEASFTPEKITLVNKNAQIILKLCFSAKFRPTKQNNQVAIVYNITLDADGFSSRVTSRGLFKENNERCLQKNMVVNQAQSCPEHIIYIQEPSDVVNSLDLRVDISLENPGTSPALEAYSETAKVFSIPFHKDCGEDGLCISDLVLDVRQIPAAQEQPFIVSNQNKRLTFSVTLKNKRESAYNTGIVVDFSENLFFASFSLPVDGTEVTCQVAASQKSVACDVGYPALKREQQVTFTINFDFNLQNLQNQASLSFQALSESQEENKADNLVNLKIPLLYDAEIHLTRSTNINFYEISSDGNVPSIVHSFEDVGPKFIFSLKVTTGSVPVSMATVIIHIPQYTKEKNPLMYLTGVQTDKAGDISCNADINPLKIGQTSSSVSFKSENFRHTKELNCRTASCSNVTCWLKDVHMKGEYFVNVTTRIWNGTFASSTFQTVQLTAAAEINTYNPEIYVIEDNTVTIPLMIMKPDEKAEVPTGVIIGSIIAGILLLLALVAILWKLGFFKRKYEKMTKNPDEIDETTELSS
Sequence of human platelet α2β1 integrin (immobilized on microtiter plates) (human) (chain, as listed by the source limits assumed, chain 2 of 2): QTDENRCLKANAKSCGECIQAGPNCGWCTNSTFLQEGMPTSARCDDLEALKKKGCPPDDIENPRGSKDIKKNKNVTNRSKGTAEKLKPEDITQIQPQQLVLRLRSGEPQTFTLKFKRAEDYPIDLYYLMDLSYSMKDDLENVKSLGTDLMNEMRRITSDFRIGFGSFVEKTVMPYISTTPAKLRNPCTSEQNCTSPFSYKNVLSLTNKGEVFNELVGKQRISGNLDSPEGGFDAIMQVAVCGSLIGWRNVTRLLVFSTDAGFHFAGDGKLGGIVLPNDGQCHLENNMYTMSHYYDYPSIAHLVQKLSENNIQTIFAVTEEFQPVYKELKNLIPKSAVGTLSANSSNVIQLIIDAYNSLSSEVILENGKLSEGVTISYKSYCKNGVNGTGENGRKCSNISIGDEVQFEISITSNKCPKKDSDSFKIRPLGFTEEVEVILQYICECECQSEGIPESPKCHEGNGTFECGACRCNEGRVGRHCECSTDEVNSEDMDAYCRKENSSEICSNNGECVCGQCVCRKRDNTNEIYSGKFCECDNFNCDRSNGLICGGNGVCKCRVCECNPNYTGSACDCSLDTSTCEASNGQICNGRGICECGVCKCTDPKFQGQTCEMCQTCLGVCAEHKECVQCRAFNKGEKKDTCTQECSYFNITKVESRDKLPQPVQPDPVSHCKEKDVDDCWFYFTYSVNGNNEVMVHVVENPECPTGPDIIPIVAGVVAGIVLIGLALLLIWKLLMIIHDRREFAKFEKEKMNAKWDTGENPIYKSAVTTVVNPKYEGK

| Binder | Kd [1] [nM] | koff [1] [s⁻¹] | kon [1] [M⁻¹ s⁻¹] | Kd [2] [nM] | fold decrease compared to human α2 I domain [2] [fold] | fold shift in potency relative to the mouse-human chimeric TMC-2206 antibody [3] [fold] |
| --- | --- | --- | --- | --- | --- | --- |
| B1 | 2 | 0.00082 | 420000 | 1.3 | 6 | – |
| B2 | – | – | – | – | – | > 1600 |
